Reference: PMC3461361

Target: Invasion plasmid antigen B (IpaB) (S. flexneri)
Assay: native gel or EMSA

Invasion plasmid antigen B (IpaB) (natural protein)
stoichiometry N: > 10
